Assay results published in patent US20030207838A1.

Biological target: Fas (CD95) expressed on vascular smooth muscle cells (human) (UniProt P25445)
Test: cell-based or functional assay

Chain of UniProt P25445 (P25445 26-335): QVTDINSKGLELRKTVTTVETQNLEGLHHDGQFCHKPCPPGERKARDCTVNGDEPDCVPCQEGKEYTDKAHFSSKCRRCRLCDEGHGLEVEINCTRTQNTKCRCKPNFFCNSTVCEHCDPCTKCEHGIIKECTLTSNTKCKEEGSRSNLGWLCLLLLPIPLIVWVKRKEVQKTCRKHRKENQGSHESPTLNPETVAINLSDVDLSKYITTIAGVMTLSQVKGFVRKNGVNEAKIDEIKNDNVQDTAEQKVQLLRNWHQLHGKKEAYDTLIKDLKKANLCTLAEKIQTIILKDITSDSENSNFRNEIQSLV

percent of apoptotic cells (hypodiploid DNA content) 16 h after treatment, A20-expressing SMC: 33%
percent of apoptotic cells (hypodiploid DNA content) 16 h after αFas treatment, non-infected (NI) SMC: 1.9%
percent of apoptotic cells (hypodiploid DNA content) 16 h after αFas treatment, rAd.β-gal-infected SMC: 2.34%
percent of apoptotic cells after αFas with Actinomycin D (150 nM), NI and rAd.β-gal infected SMC: 28 to 35%
Substance: anti-Fas antibody IgM clone CH-11 (05-201 Upstate)
